From patent US20190275125A1 (H LUNDBECK A S, published 2019)

Tests used:
Assay in all cases: MSD inhibition assay, abeta 1-28 coated plates
Var24 = target: Var24
Met-var24 = target: Met-var24
[1] = target: T1, abeta 1-12 trimer construct (UniProt P05067 672-683; P05067 672-683; P05067 672-683)
T1 construct: range 1-12
T1 sequence (peptide): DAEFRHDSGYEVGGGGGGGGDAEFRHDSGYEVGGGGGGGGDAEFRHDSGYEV

Measured: binding result

B1: Biosimilar (BS) bapineuzumab (antibody, V domains shown)
VH: EVQLVESGGGLVQPGGSLRLSCAGSGFTFSNYGMSWVRQAPGKGLEWVASIRSGGGRTYYSDNVKGRFTISRENAKNSLYLQMNSLRAEDTAVYYCVRYDHYSGSSDYWGQGTLVTVSS
VL: DVVMTQSPLSLPVTLGQPASISCKSSQSLLDSDGKTYLNWLQQRPGQSPRRLIYLVSKLDSGVPDRFSGSGSGTDFTLKISRVEAEDVGVYYCWQGTHFPRTFGGGTKVEIKR
binds: all assays above
